Laboratory results reported in publication PMC2736960, “Cloning and characterization of a glucosyltransferase from Crocus sativus stigmas involved in flavonoid glucosylation” (BMC Plant Biology, 2009).

Columns and labels:
Format in all cases: biochemical, Crocus sativus
HPLC of glucoside formed = substrate: O=c1ccn([C@@H]2O[C@H](CO[P@@](=O)(O)O[P@@](=O)(O)O[C@H]3O[C@H](CO)[C@@H](O)[C@H](O)[C@H]3O)[C@@H](O)[C@H]2O)c(=O)[nH]1; experiment: HPLC of glucoside formed; conditions: constant kaempferol as acceptor (level not given)
[1] = substrate: O=c1c(O)c(-c2ccc(O)c(O)c2)oc2cc(O)cc(O)c12; experiment: HPLC of glucoside formed, Lineweaver-Burk; conditions: 7-O-glucoside formation (preferred position), 2.5 mM UDP-glucose, 50 mM Tris-HCl pH 7.5, 14 mM 2-mercaptoethanol, 30°C
Description: (§1) HPLC of glucoside formed, Lineweaver-Burk on CsGT45

[2] = substrate: O=c1c(O)c(-c2ccc(O)cc2)oc2cc(O)cc(O)c12; experiment: HPLC of glucoside formed, Lineweaver-Burk; conditions: 7-O-glucoside formation, 2.5 mM UDP-glucose, 50 mM Tris-HCl pH 7.5, 14 mM 2-mercaptoethanol, 30°C
Description: as §1

B1: CsGT45 (Crocus sativus) (protein)
chain: MEQHQPNILVVTYPAQGHINPALHLAKHLAADTKGLLITFSTAISAHRKMFPESTEPDQEVEDGPITYIPFSDGYDDGFQRDKHDGKQFRSRFKTVGSNTLSAIIQNLEHRGRKVSCVIYTFFVSWAADVARQHAIPSVQYWIQPATVFAIYYHYFHGYESVVAAHSHDPSYPINLPGLSPVQVRDLPSFLTIKPDDPYAVVLSMIRDSFEGLDREETKTKVLVNTFGQLEADAILAVDKMDIIPVGPILPCKGGVSRGDLLKEDEKGYMEWLDSKPENSVVYVSLESLAVLKKQQKFLILKGLKDSGRPYLWVVRRDSGLEGVELGDWDGDGDGDNGMVVGWCSQVSVLSHPSVGCFVTHCGWNSTMESLASGVPTIGVPQWSDQPTCAALAEKDWGIGVRSEVNGDGILEGGELKRCLDLVLGDGERGVEIRRKVEFWKDKATEAISFGGSSDKNLRTFVDQITGYDPNVSSVGFWKDKAIHRQHCEESESASPS
Work on B1 yielded a Km (HPLC of glucoside formed) of 600 µM, a Km [1] of 21.50 ± 2.3 µM and a Km [2] of 15.6 ± 1.2 µM.
